{"source": "patent US20090068214A1", "target": "HLA-A2 on T2 cells, P30376", "data": [{"binder": "ALQAIELQL (modifications not checked)", "note": "[HPV 16 E2 69-77 peptide (…)]", "values": [{"measurement": "peptide concentration at fluorescence index (FI) 0.5", "value": 50, "unit": "µM"}]}]}
